This passage reports percent of nanoparticle subunits conjugated results from paper doi:10.1101/2020.06.11.147496.

In experiment [1] the target is LuS-N71-SpyTag (Aquifex aeolicus lumazine synthase nanoparticle with a glycan at N71 and SpyTag at the N-terminus) (Aquifex aeolicus).
Experiment [2] has as its target ferritin-N96-SpyTag (Helicobacter pylori ferritin nanoparticle with a glycan at N96 and SpyTag) (Helicobacter pylori).

On to “RSV F-SpyCatcher (respiratory syncytial virus prefusion F 'DS2' trimer with SpyCatcher at the C-terminus)”, for which the percent of nanoparticle subunits conjugated in experiment [1] amounted to 67%; in experiment [2] it was 85%.
